PMC8264439
Where two headings read alike, the source gives them in different places.

Key:
Assay in all cases: SEC; analytical Superdex 200 increase 10/300 GL; 180 μM protein in 50 μL injected; 20 mM Hepes (pH 7.5); 0.75 ml/min; 25°C; dimer to monomers
[1] = target: SARS-CoV-2 3CLpro C145A variant (SARS-CoV-2)
[2] = target: SARS-CoV-2 3CLpro C145A variant (SARS-CoV-2); remark: listed apart in the source
[3] = target: SARS-CoV-2 3CLpro C145S variant (SARS-CoV-2)
[4] = target: SARS-CoV-2 3CLpro C145S variant (SARS-CoV-2); remark: listed apart in the source
[5] = target: SARS-CoV-2 3CLpro H41A variant (SARS-CoV-2)
[6] = target: SARS-CoV-2 3CLpro H41D variant (SARS-CoV-2)
[7] = target: SARS-CoV-2 3CLpro H41E variant (SARS-CoV-2)

“SARS-CoV-2 3CLpro C145A variant (enzyme)” was tested, and the stoichiometry N [1] was > 2 and the stoichiometry N [2] was 2.
For “SARS-CoV-2 3CLpro C145S variant (enzyme)”, the stoichiometry N [3] was 2 and the stoichiometry N [4] was > 2.
SARS-CoV-2 3CLpro H41A variant (enzyme) showed a stoichiometry N [5] of 2.
SARS-CoV-2 3CLpro H41D variant (enzyme) gave a stoichiometry N [6] of 2.
For SARS-CoV-2 3CLpro H41E variant (enzyme), the stoichiometry N [7] was 2.
